“Also recorded” adds a separate entry of the source. Like-named read-outs stand apart in the source and are kept apart here.
What was measured:
[1] = tested on: platelet rich plasma; assay: Platelet aggregation in platelet rich plasma in response to ADP and collagen; format: cell-based, baboon; details: platelet rich plasma of treated animals versus control
[2] = tested on: baboons (Papio anubis); assay: Local and systemic TAT, βTG and D-dimer during thrombus formation (4 mm grafts); format: in vivo, baboon (Papio anubis)
Experimental: A novel local sampling method was used to assess the local production of thrombogenic mediators by sampling blood that superfused propagating experimental thrombi. […] All blood samples were collected into 1/10th volume 3.8% citrate anticoagulant. Systemic samples (1 ml each) were collected before initiation of thrombosis as well as 30 and 60 min into each study. A total of 6 local blood samples were drawn from the peripheral blood IBL at a rate of 100 μl/min over 10 min intervals out of a 0.64 mm port which was located 10 mm distal to the growing thrombus (FIG. 1A). […] Infusion and sampling were regulated by syringe pumps (Harvard Apparatus). Local sampling was performed only with the 4 mm i.d. devices in this study.
Blood cell counts were determined using a micro-60 automated cell counter (Horiba-ABX Diagnostics). Blood samples were divided into two aliquots and processed according to specific test requirements. All samples were placed on ice for 10 min, centrifuged at 4° C. for 10 min at 12,900 g, and the plasmas were stored at −80° C. For β-thromboglobulin (βTG) determinations, the samples were supplemented with 4 μg/ml prostaglandin E1 (PGE1), 4.3 mg/ml acetylsalicylic acid (ASA), and 50 μg/ml PPACK. Cross-reacting ELISA assays were used to determine D-dimer levels (IMUCLONE® D-Dimer, American Diagnostica; LOD: 35 ng/mL), the platelet activation marker βTG (Asserachrom®, Diagnostica Stago; LOD: 5 IU/mL), and thrombin-antithrombin complexes (TAT, Enzygnost-TAT, Dade-Behring; LOD: 2 ng/mL). All ELISA test kits utilized for these studies have previously shown sensitivity to baboon markers.

[3] = molecular target: T1, Human FXI in plasma (Homo sapiens, UniProt P03951); assay: Western blot of human plasma; format: binding
T1 construct: antibody 1A6 recognizes Factor XI in human and non-human primate plasma; from tissue; host or cells: normal human plasma (A4); whole human blood or reconstituted FXII-deficient human blood (A9)
Excerpt: Results from a Western Blot study corroborating that anti-factor XI monoclonal antibody 1A6 recognizes Factor XI in human and non-human primate plasma is shown in FIG. 7A.

[4] = tested on: FXI; assay: Pilot experiment: FXI:Ag, FXI inhibitor and FXI procoagulant activity after aXIMab in a single baboon; format: in vivo
Experimental: The maximum achievable prolongation of the aPTT was about 2.5 fold. FXI:Ag was measured by ELISA using goat anti-human FXI polyclonal capture and detection (horseradish peroxidase conjugated [HRP]) antibodies (Affinity Biologicals, Hamilton, Ontario), which also recognized baboon FXI and its complex with aXIMab. A standard curve was constructed with serial dilutions of NBP, and FXI concentrations were determined in percentage of NBP. Western blots for FXI were performed by size fractionation of 1 μl samples of plasma under non-reducing conditions on 7.5% polyacrylamide-SDS gels, followed by transfer to PVDF membranes. Detection was with a goat-anti-human FXI polyclonal antibody conjugated to HRP and chemiluminescence.

[5] = tested on: baboons; assay: Standard template skin bleeding time test (Surgicutt); format: in vivo, baboon
Experimental: The effects of FXI inhibition and aspirin on primary hemostasis in baboons were assessed using the standard template skin bleeding time test (Surgicutt®, International Technidyne Corp). […] All bleeding time measurements were performed by the same expert technician. For indirect assessment of hemostasis, aPTT and PT measurements were also performed.

[6] = tested on: third apple (A3) domain of the FXI heavy chain; assay: Immunoblotting of FXI and recombinant FXI/prekallikrein chimeras; format: binding, human; details: for FXI domain recognized: immunoblotting of recombinant FXI/prekallikrein chimeras
Experimental: Comparative binding studies for monoclonal antibody 1A6 were conducted using FXI, Prekallikrein (PK), and FXI/PK chimeras involving either the substitution FXI domains with PK domains (FIG. 9) or the substitution of PK domains with FXI domains (FIG. 10).

B1: aXIMab: neutralizing murine IgG/kappa anti-human FXI monoclonal antibody from hybridoma 1A6; binds A3 domain; VH SEQ ID NO:3, VL SEQ ID NO:5 (antibody, listed as Mus musculus, V domains shown)
VH: QVTLKESGPGILKPSQTLSLTCSFSGFSLSTSGMGVGWIRQPSGKGLEWLAHIWWDDDKYYNPSLKSQLTISKDTSRNQVFLKITSVDAADTATYYCARKRSSVVAHYYAMDYWGQGTSVTVSS
VL: DIVLTQSPASLAVSLGQRATISCKASQSVDYDGDSYLNWYQQKPGQPPKLLIYAASNLESGIPARFSGSGSGTDFTLNIHPVEEEDAATYYCQQSNGDPWTFGGGTKLEIK
[1]
  Platelet aggregation in response to ADP and collagen: unchanged
[2]; at 30 min, samples taken distal to thrombi
  βTG release (platelet activation at thrombus surface) reduced: 86%
[2]; at 40 min
  TAT levels by local sampling reduced: up to 98%
[2]; at 60 min
  Systemic βTG levels reduced: 42%
  systemic TAT levels reduced versus untreated controls: 81%
[2]; at 60 min, n=6, control 22.1±2.5
  systemic TAT levels: 4.3 ± 0.5 µg/L
[2]; at 60 min, n=6, vehicle 39.5±5.5
  Systemic βTG levels: 23.0±2.1 IU/ml
[2]; pre-treatment with aXIMab (FIG. 4A)
  increase in local TAT levels: prevented the increase in local TAT levels
[3]
  recognition of FXI on Western blot: single band at 160 kDa
[3]; listed as 1A6
  recognition of FXI on Western blot: recognizes
[4]; 1 h after 2 mg/kg, single baboon, baseline 110%
  FXI:Ag levels: 40 % of NBP levels
[4]; 1 h after 2 mg/kg, single baboon, baseline 125%
  FXI activity: < 1%
[4]; 1 h post infusion, 2 mg/kg, single baboon
  Maximum circulating FXI inhibitor levels (Bethesda assay): 72 Bethesda units [BU]
[4]; by day 15, 2 mg/kg, single baboon
  circulating FXI inhibitor levels (Bethesda assay): < 0.6 BU
[4]; day 8 post-infusion, 2 mg/kg, single baboon
  FXI:Ag levels: 300 % of control
[4]; day 27, 2 mg/kg, single baboon
  FXI activity: 136%
  Plasma FXI antigen: 130%
[4]; following the disappearance of FXI activity
  total FXI:Ag levels: temporarily increased several-fold above baseline
[4]; for 10 days after administration, 2 mg/kg, single baboon
  FXI activity inhibited: > 99%
[4]; for over a week following injection
  free FXI:Ag: < 1%
[4]; in vivo
  maximum achievable prolongation of the aPTT: about 2.5 fold
[4]; through day 15, 2 mg/kg, single baboon
  Plasma FXI antigen: above 200 % of control
[5]; FIG. 6, compared with no treatment controls
  effect on bleeding time / hemostasis: did not demonstrably impair hemostasis
[5]; vehicle-treated controls 3.4±0.2 min
  standard template bleeding time: 3.5 ± 0.3 min
[6]; FXI domains substituted with PK domains (FIG. 9)
  binding to FXI/PK chimeras: bound all FXI/PK chimeras except the chimera in which the A3 domain of FXI was substituted with a PK domain
[6]; PK domains substituted with FXI domains (FIG. 10), listed as 1A6
  binding to FXI/PK chimeras: bound only to chimeras in which the A3 domain of FXI had been inserted; also recorded: bind only to chimeras in which the A3 domain of FXI had been inserted
[6]
  FXI domain recognized: specifically recognized the third apple (A3) domain
[6]; listed as 1A6
  FXI domain recognized: bound to an epitope on the FXI A3 domain
